This experiment deals with HSPA5 protein (wild type, in vitro systems, ITC and SPR) (UniProt P20029 20-655). Briefly: ITC.

By Kd is commonly meant the free concentration of one partner at which half of the binding sites on the other are occupied at equilibrium, for simple one-to-one binding.

Sequence of HSPA5 protein (wild type, in vitro systems, ITC and SPR) (P20029 20-655): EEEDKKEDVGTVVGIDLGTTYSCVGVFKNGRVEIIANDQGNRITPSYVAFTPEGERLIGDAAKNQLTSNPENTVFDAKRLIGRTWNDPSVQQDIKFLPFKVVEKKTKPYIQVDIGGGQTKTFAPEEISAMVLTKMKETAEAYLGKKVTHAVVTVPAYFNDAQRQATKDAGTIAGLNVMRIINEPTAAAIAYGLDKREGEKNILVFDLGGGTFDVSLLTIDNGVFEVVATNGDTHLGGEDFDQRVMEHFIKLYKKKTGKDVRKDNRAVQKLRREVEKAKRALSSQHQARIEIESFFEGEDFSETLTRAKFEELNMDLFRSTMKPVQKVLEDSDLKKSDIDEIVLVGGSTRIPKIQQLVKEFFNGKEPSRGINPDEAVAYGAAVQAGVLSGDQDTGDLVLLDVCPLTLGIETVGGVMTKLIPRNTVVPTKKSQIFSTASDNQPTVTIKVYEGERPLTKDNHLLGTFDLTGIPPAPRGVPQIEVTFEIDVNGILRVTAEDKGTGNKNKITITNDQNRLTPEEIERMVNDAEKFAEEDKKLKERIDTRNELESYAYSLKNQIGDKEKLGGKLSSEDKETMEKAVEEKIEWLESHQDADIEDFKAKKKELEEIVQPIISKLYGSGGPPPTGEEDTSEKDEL

B1: SCNN1B protein (in vitro ubiquitination system, ITC and SPR) (natural protein)
chain: MPVKKYLLKCLHRLQKGPGYTYKELLVWYCNNTNTHGPKRIICEGPKKKAMWFLLTLLFACLVCWQWGVFIQTYLSWEVSVSLSMGFKTMNFPAVTVCNSSPFQYSKVKHLLKDLDELMEAVLEKILAPEASHSNTTRTLNFTIWNHTPLVLIDERNPDHPVVLNLFGDSHNSSNPAPGSTCNAQGCKVAMRLCSANGTVCTLRNFTSATQAVTEWYILQATNIFSQVLPQDLVGMGYAPDRIILACLFGTEPCSHRNFTPIFYPDYGNCYIFNWGMTEETLPSANPGTEFGLKLILDIGQEDYVPFLASTAGARLMLHEQRTYPFIREEGIYAMAGTETSIGVLVDKLQRKGEPYSPCTMNGSDVAIKNLYSVYNTTYSIQACLHSCFQDHMIRNCSCGHYLYPLPEGEKYCNNRDFPDWAYCYLNLQMSVTQRETCLSMCKESCNDTQYKMTISMADWPSEASEDWILHVLSQERDQSSNITLSRKGIVKLNIYFQEFNYRTIEESPANNIVWLLSNLGGQFGFWMGGSVLCLIEFGEIIIDFIWITIIKLVASCKGLRRRRPQAPYTGPPPTVAELVEAHTNFGFQPDTTSCRPHGEVYPDQQTLPIPGTPPPNYDSLRLQPLDTMESDSEVEAI
Regarding B1, the Kd turned out to be 860 nM.

B2: ATAT1 protein (in vitro acetylation system, ITC and SPR) (enzyme)
chain: MEFPFDVDALFPERITVLDQHLRPPARRPGTTTPARVDLQQQIMTIVDELGKASAKAQHLPAPITSALRMQSNRHVIYILKDTSARPAGKGAIIGFLKVGYKKLFVLDDREAHNEVEPLCILDFYIHESVQRHGHGRELFQHMLQKERVEPHQLAIDRPSPKLLKFLNKHYNLETTVPQVNNFVIFEGFFAHQHRPPTSSLRATRHSRAAVADPIPAAPARKLPPKRAEGDIKPYSSSDREFLKVAVEPPWPLNRAPRRATPPAHPPPRSSSLGNSPDRGPLRPFVPEQELLRSLRLCPPHPTARLLLATDPGGSPAQRRRTRGTPWGLVAQSCHYSRHGGFNTSFLGTGNQERKQGEQEAEDRSASEDRVLLLDGSGEEPTQTGAPRAQAPPPQSWTVGGDIMNARVIRNLQERRSTRPW
Regarding B2, the Kd stood at 110 nM.

Source of the values: article PMC10656488 (2023).
